# According to publication PMC6644751 (2018):
# Like-named read-outs stand apart in the source and are kept apart here.
# T1: S100B (Homo sapiens, UniProt P04271)
# T1 chain: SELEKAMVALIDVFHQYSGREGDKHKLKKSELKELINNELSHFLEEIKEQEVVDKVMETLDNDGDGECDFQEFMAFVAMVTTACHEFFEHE
# T2: S100A11 (Homo sapiens, UniProt P31949)
# T2 chain: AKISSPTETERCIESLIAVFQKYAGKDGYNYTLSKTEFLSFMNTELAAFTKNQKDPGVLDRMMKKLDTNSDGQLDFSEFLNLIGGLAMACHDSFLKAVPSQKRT
# Key:
# Test in all cases: HSQC-NMR titration
# S100B [1] = molecular target: T1, S100B
# S100B [2] = molecular target: T1, S100B
# S100A11 = molecular target: T2, S100A11
Kd (S100B [1]) [nM],Kd (S100B [2]) [nM],Kd (S100A11) [nM],Binder
~2650,~2800,–,"S100A11 (protein, Ca2+, monomers after urea denaturation/renaturation) AKISSPTETERCIESLIAVFQKYAGKDGYNYTLSKTEFLSFMNTELAAFTKNQKDPGVLDRMMKKLDTNSDGQLDFSEFLNLIGGLAMACHDSFLKAVPSQKRT"
–,–,~2500,"S100B (protein, Ca2+, monomers after urea denaturation/renaturation) SELEKAMVALIDVFHQYSGREGDKHKLKKSELKELINNELSHFLEEIKEQEVVDKVMETLDNDGDGECDFQEFMAFVAMVTTACHEFFEHE"
